Values of other authors in publication PMC12869367.

Biological target: DMBT1S8L (Homo sapiens) (UniProt Q9UGM3)
Sequence of UniProt Q9UGM3 (Q9UGM3 20-2413): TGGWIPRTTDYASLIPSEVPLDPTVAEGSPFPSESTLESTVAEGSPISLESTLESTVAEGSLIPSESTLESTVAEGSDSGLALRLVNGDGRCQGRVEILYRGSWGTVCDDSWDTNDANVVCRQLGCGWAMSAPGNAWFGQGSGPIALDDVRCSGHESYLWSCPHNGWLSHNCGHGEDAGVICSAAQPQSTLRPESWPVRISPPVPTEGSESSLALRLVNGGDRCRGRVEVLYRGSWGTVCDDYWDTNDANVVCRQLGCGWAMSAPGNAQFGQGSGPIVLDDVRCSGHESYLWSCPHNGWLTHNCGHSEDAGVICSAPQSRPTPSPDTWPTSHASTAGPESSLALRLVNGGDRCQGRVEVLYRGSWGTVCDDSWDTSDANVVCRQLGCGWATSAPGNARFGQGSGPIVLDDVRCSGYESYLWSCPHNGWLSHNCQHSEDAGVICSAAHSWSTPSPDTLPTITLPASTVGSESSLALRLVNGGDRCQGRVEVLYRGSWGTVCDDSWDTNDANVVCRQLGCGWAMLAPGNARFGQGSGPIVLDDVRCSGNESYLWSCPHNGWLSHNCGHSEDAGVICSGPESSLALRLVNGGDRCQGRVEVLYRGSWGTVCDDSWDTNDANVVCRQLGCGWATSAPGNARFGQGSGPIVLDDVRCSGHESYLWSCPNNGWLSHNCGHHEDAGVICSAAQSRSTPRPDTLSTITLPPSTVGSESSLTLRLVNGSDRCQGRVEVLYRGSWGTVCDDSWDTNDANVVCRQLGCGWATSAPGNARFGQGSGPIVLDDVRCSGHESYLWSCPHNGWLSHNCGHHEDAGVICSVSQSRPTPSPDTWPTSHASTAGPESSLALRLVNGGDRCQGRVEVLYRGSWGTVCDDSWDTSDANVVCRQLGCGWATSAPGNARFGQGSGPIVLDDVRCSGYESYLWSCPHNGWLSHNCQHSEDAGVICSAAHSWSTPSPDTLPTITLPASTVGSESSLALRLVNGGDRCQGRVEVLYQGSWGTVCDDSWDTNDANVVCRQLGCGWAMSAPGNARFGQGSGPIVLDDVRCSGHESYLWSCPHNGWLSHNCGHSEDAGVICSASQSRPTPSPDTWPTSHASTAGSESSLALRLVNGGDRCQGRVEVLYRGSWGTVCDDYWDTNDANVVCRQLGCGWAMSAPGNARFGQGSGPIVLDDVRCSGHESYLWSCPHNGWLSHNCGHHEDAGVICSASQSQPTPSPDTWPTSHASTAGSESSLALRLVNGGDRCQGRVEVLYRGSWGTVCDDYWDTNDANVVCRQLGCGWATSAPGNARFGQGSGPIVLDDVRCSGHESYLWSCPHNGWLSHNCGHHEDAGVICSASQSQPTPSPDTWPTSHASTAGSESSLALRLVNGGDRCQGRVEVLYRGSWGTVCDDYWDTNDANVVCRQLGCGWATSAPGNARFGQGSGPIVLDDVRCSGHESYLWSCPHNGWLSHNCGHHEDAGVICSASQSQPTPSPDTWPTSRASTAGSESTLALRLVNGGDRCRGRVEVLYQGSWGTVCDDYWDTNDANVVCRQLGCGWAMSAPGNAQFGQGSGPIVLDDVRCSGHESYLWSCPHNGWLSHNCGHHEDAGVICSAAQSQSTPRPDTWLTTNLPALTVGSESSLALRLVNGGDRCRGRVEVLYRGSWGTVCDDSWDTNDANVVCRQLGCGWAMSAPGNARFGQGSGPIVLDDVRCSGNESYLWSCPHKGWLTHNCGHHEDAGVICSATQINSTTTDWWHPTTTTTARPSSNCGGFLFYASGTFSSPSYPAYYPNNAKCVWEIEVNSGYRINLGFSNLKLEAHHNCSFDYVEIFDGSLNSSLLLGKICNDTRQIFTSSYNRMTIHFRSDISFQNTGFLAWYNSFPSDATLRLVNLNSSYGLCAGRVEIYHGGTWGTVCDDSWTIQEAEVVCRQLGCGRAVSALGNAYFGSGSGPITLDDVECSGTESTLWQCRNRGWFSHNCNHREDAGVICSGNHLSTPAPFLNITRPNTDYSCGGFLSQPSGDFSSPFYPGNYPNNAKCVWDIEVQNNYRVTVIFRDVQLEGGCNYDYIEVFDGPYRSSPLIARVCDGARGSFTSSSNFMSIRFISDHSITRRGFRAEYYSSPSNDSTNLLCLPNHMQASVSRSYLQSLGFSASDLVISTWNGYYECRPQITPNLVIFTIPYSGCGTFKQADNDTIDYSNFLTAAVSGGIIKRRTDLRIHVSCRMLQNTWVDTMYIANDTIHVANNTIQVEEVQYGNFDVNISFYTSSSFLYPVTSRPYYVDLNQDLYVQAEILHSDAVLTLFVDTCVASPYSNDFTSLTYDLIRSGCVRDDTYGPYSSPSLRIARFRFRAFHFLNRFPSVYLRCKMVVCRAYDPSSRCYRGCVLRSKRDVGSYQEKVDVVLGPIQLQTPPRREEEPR

Kd: 60 pM
Substance: Siglec-8-Fc (from UniProt Q9NYZ4)
